B1: ADI-18992 (antibody, V domains shown)
VH: QVQLVQSGAEVKKPGASVKVSCKASGYIFTGYFIHWVRQAPGQGLEWMGVINPRGGSTSYAQKFQGRVAVSRDTSTTTVYMELNSLRSEDTAVYYCARAPSHDEWVAISRNNDVVGFDAWGQGTLVTVSS
VL: QSVLTQPPSVSGAPGQRVTISCTGGSSNIGADYDVHWYQQPPGTAPKLLIFANNNRPSGVPGRFSGSKSGTSASLAITGLQAEDEADYYCQSYDSSLSAWVFGGGTKLTVL
notes: full-length IgG; also called Antibody Number 340
B2: ADI-19014 (antibody, V domains shown)
VH: EVQLVESGPRLVKPSQTLSLTCTVYGGSISGGQNYYSWVRQPPGKGLEWIGYIFSSGTTYYKPSLKSRISISFDTSKNQFSLNLASVTAADTAVYFCARSADIDIVWGSSLYMPLWGQGTLVTVSS
VL: EIVLTQSPGTLSLSPGQRATLSCRATHIVSNSYLAWYQQKPGQAPRLLIHGVSIRATGIPDRFSGSGSGTDFTLTISRLEPEDFAVYFCQQYGTSPWTFGQGTKLEIK
notes: full-length IgG; also called Antibody Number 362
B3: ADI-19001 (antibody, V domains shown)
VH: EVQLVESGGGLVKPGRSLRLSCTASGFNFGDYAMSWFRQAPGKGLEWVGFIRSKTYRETREYAASVKGRFTMSRDDFNRIAYLQMNSLKTEDTAMYYCTRQDDFWSGHPYYFEYWGQGTLVTVSS
VL: QPVLTQPPSASGSPGQSVTISCTGTNSDVGSYNYVSWYQHHPGKAPKLIIYDVAKRPSGVPDRFSGSKSGNTASLTVSGLQAEDEADYYCSSYAGSNDLGVFGTGTKLTVL
notes: full-length IgG; also called Antibody Number 349
B4: ADI-19013 (antibody, V domains shown)
VH: QVQLVQSGAEVKKPGESLKISCKGSGYSFSSYWIGWVRQMPGKGLEWMGIIYPGDSDTRYSPSLQGQVTISGDKSISTAFLQWSSLKASDTAMYYCARPMTTQEGFDLWGQGTMVTVSS
VL: DIRLTQSPSSVSASVGDRVTITCRASQGISDWLAWYQQKPGKAPKLLIYAASSLQSGVPSRFSGSGSGTDFTLTISSLQPEDFATYYCQQTNSFLPLTFGGGTKVDIK
notes: full-length IgG; also called Antibody Number 361
B5: ADI-19000 (antibody, V domains shown)
VH: EVQLVESGAEVKKPGASVKVSCKASGYTFTTYDINWVRQATGRGLEWMGWMTPDSGSTGYPQNFQGRVTMTRNTSISTAYMELSNLRSEDTAVYYCVQMDHCRSTSCSEGNWFDTWGQGTLVTVSS
VL: QPGLTQPPSVSAAPRQRVTISCSGSSSNIGTNAVNWYQQLPGKAPKLLIYSDNLMPSGVSARFSGSKSGTSASLAISGLQSEDEADYYCAAWDDSLNVWVFGGGTKLTVL
notes: full-length IgG; also called Antibody Number 348
B6: ADI-19007 (antibody, V domains shown)
VH: QVQLVQSGGGLVQPGGSLRLSCAASGFTFSQSPMSWVRQAPGKGLEWVSGISTGGTNTYYADSVKGRFTISRDNSKNTLYLQMTSLRVGDTAVYYCAKESLDFGSGSYNWFDTWGQGTLVTVSS
VL: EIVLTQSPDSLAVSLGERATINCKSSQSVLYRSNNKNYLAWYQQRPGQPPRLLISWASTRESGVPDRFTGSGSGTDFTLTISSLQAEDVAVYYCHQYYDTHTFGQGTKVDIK
notes: full-length IgG
B7: ADI-18990 (antibody, V domains shown)
VH: QVQLQESGPGRVKPSQTLSLTCTVSGVSVTINDYYWTWLRQSPGKGLEWIGNIYNSGSTYQNPSLQSRVTMSVDTAKNHFSLKLTSVTAADTAVYYCARDLGTANNYYFGMDVWGLGTTVTVSS
VL: DIVLTQSPATLSLSPGERATLSCRASQSVSTYLAWYQQKPGQAPRLLIYNGSNRVTGTPARFSGSGSGTDFTLTISSVEPEDFAVYYCQQRSNWPPYTFGQGTKVEIK
notes: full-length IgG
B8: ADI-18999 (antibody, V domains shown)
VH: QVQLVQSGAEVKKPGSSVKVSCKASGGRFSSDAISWVRQAPGQGLEWMGGIIPIRGTPTYAQKFQGRVTIIADESTTTSYMEMSSLRSEDTAVYYCARPNYDILTGYNDAFDIWGQGTMVTVSS
VL: QSVLTQPRSVSGSPGQSVTISCTGTSSDVGGYNYVSWYQQHPGKVPRLMIYDVSKRPSGAPDRFSGSKSGNTASLTISGLQAEDEADYYCCSYAGGLYVFGTGTKLTVL
notes: full-length IgG
B9: ADI-18982 (antibody, V domains shown)
VH: QVQLVQSGAEVKKPGASVKVSCKASGYIFTSYGVSWVRQAPGQGLKWMGWISGYNGNTNYDQKLQGRVTMTTDTSTSTAYMELRSLTSDDTAVYYCARDSFSETGTGFPDFWGQGTLVTVSS
VL: DIQMTQSPLSLPVTLGQPASISCRSSQSLEYSDGNTYLNWFQQRPGQSPRRLIYKVSNRDSGVPDRFSGSGSGTDFTLKISRVEAEDVGVYYCMQATHRPRTFGQGTKLEIK
notes: full-length IgG; also called Antibody Number 330
B10: ADI-19012 (antibody, V domains shown)
VH: EVQLVESGPGLVKPSGTLSLTCAVSGDSIVGSDWWSWIRQPPGKGLEWIGDIYHGGTTSYNPSLKSRVTMSVDKSKNQFSLKLTSVTAADTAVYYCARLSGNCSGGSCYSPFDHWGQGTLVTVSS
VL: DIQMTQSPSSLSASVGDRVTITCRASQTINGYLNWYQQRPGKAPKLLISAASSLQSGVPSRFRGSGYGTDFTLTISSLQPEDFATYFCQQSYNTVYTFGQGTKVDIK
notes: full-length IgG; also called Antibody Number 360
B11: ADI-18995 (antibody, V domains shown)
VH: EVQLVESGPGLVKPSETLSLSCIVSGGSITSGDYYWSWLRQSPGKGLEWIGYIYHSGATFYTPSLRSRVTISTDTSKNQFSLRLSSVTAADTAVYYCASGPVGMATSNWFDPWGQGTLVTVSS
VL: SYELTQPPSVSVAPGKTATITCGGDIIRTNSVNWYQQKPGQAPLLLIYYDSDRPSGIPERFSASNSGNTATLTISRVEAGDEADYYCQVWDSGTDYHVVFGGGTKLTVQ
notes: full-length IgG; also called Antibody Number 343
B12: ADI-18998 (antibody, V domains shown)
VH: EVQLLESGPGLVKPSQTLSLTCTVSGGSINSIDYYWSWIRQPPGKGLEWIGYIYHSGSTHYRPSLKSRVTISLDKAKNEFSLSLTSVTAADTAVYFCASGPVGMATSNWFDPWGQGTLVTVSS
VL: QPVLTQPPSVSVTPGETARLPCEGDIVVTNSVHWYQQKPGQAPVLVVYYDSDRASGIPERFSGSNSGNTATLSISRVEAGDEADYYCQVWDSSTDHHVVFGGGTKLTVL
notes: full-length IgG; also called Antibody Number 346

Target: T1, RSV F ectodomain stabilized in the postfusion conformation (F ΔFP), subtype B (respiratory syncytial virus subtype B, UniProt P13843 26-109; P13843 147-524)
T1 construct: extracellular domain; Trimer; also called Postfusion subtype B
Experiment: BLI (Octet), IgG on AHQ sensor, 100 nM antigen

| Binder | Kd [nM] |
| --- | --- |
| B1 | 0.907 |
| B2 | 0.277 |
| B3 | 0.149 |
| B4 | 0.583 |
| B5 | 0.128 |
| B6 | 0.457 |
| B7 | 0.252 |
| B8 | 0.141 |
| B9 | 0.747 |
| B10 | 0.314 |

Target: T2, RSV F ectodomain stabilized in the postfusion conformation (F ΔFP), subtype A (respiratory syncytial virus subtype A, UniProt P03420 26-109; P03420 147-524)
T2 construct: extracellular domain; Trimer; also called Postfusion subtype A
Experiment: BLI (Octet), IgG on AHQ sensor, 100 nM antigen

| Binder | Kd [nM] |
| --- | --- |
| B5 | 0.175 |
| B6 | 0.969 |
| B11 | 12.3 |
| B7 | 0.294 |
| B8 | 0.167 |
| B9 | 0.765 |
| B12 | 12.4 |

Target: T3, RSV F protein of subtype A (strain A2) on recombinant mKate-RSV (respiratory syncytial virus subtype A …, UniProt P03420 26-574)
Experiment: cell-based or functional assay

| Binder | Neut IC50 subtype A [mg/L] |
| --- | --- |
| B1 | 2.55 |
| B2 | 1.75 |
| B3 | > 10 |
| B4 | 9.5 |
| B5 | 0.037 |
| B6 | 0.208 |
| B11 | 0.043 |
| B7 | 0.58 |
| B8 | 1.8 |
| B9 | 0.018 |
| B12 | 0.055 |
| B10 | > 10 |

Target: RSV F protein of subtype B (18537) on recombinant mKate-RSV (respiratory syncytial virus subtype B …, UniProt P13843 26-574)
Experiment: cell-based or functional assay

| Binder | Neut IC50 subtype B [mg/L] |
| --- | --- |
| B1 | 5.69 |
| B2 | > 10 |
| B3 | 3.26 |
| B4 | > 10 |
| B5 | 0.129 |
| B6 | 0.37 |
| B11 | 0.125 |
| B7 | 0.845 |
| B8 | 6.46 |
| B9 | 0.053 |
| B12 | 0.458 |
| B10 | > 10 |

Target: T3, RSV F protein of subtype A (strain A2) …
Experiment: cell-based or functional assay
Remark: another data set of the same source

| Binder | RSV-A2 IC50 [mg/L] |
| --- | --- |
| B1 | 2.5 |

Target: human metapneumovirus (HMPV) F protein on GFP-expressing hMPV recombinant virus (NL/1/00, A1 sublineage) (human metapneumovirus)
Experiment: cell-based or functional assay

| Binder | HMPV-A1 IC50 [mg/L] |
| --- | --- |
| B1 | 6.1 |

Reference: US20200223906A1 (Adimab, published 2020)
